These results are taken from patent US20220412989A1, “COMPOSITIONS AND METHODS FOR DETECTING CELLS UNDERGOING FERROPTOSIS USING AN ANTIBODY” (THE TRUSTEES OF COLUMBIA UNIVERSITY IN THE CITY OF NEW YORK, priority 2020, published 2022).

The test system of assay [1] is HT-1080 cells. Description: Flow cytometry antibody staining without permeabilization. In kind it is cell-based, human. The method, then: HT-1080 cells were treated with DMSO or 1 μM RSL3 for 4 h. The cells were harvested by 0.25% Trypsin-EDTA (1×) (Invitrogen 25200-114) and washed with HBSS once. The cells were resuspended in 5% goat serum (ThermoFisher 50197Z) for 30 min on ice. The cells were incubated with mAb 3F3 FMA (1:500 dilution), Transferrin Receptor/CD71 Monoclonal Antibody, Clone: H68.4, Invitrogen (Thermo Fisher Scientific Cat #13-6800, RRID:AB_2533029, 1:250 dilution), CD71 (3B8 2A1) (Santa Cruz Biotechnology Cat #sc-32272, RRID:AB_627167, 1:50 dilution), Anti-Malondialdehyde antibody (Abcam Cat #ab6463, RRID:AB_305484, 1:400 dilution), Anti-4 Hydroxynonenal antibody (Abcam Cat #ab46544, RRID:AB_722493, 1:50 dilution), and mouse mAb 1F83 (1:100 dilution), which specifically recognizes the malondialdehyde (MDA)-lysine adduct 4-methyl-1,4-dihydropyridine-3,5-dicarbaldehyde (MDHDC) (Yamada et al., 2001) for 1 h on ice. The cells were washed with HBSS for 5 min three times by centrifugation. […] Fluorescence intensity was measured on the FL1 channel with gating to record live cells only (gate constructed from DMSO treatment group). A minimum of 10,000 cells were analyzed per condition. […]
(In general: Flow cytometry measures light scatter and fluorescence of single cells or particles in a stream.)

The subject of assay [2] is B cell lymphoma (SU-DHL-6) mouse xenograft tumor tissue. Description: Staining of B cell lymphoma mouse xenograft tumor tissue sections. Particulars: 40 mg/kg IKE once daily IP 14 days. Further details: species or system human. The method, then: Tumor tissues were fixed in 4% paraformaldehyde (PFA) for 24 h at 4° C. followed by washing with PBS three times. The tissues were perfused in 30% sucrose for 24 h at 4° C. for cryo-protection. The samples were embedded in OCT cryostat sectioning medium, and then moved directly into a cryostat. After equilibration of temperature, frozen tumor tissues were cut into 5 μm thick sections. Tissue sections were mounted on to poly-L-lysine coated slides by placing the cold sections onto warm slides. Slides were stored at −80° C. until staining. For staining, slides were warmed to room temperature followed by washing with PBS twice. A hydrophobic barrier pen was used to draw a circle on each slide. The slides were permeabilized with PBS with 0.4% Triton X-100 (PBT) twice before non-specific-binding blocking by incubating the sections with 10% goat serum (ThermoFisher 50197Z) for 30 min at room temperature. […] All images were captured on a Zeiss LSM 800 confocal microscope at Plan-Apochromat 63x/1.40 Oil DIC objective with constant laser intensity for all analyzed samples. The intensity above threshold of the fluorescent signal of the bound antibodies was analyzed using NIH ImageJ software (ImageJ, RRID:SCR_003070). Data were expressed as fold change comparing with the vehicle. […]

Assay [3] concerns the target T1, mouse TfR1 protein (Mus musculus, UniProt Q62351).
T1 construct: from tissue; host or cells: murine glioma grown from murine glioma cells injected into c57/B6 mouse brain
Description: Staining of mouse glioblastoma paraffin-embedded tissue. The method, then:
All procedures were performed according to the Columbia University Medical Center Institutional Animal Care and Use Committee. Murine glioma cell lines were created from tumor bearing mice. These tumors were generated by injection of a PDGF-IRES-Cre retrovirus into the subcortical white matter of mice with floxed PTEN and/or p53 (Sonabend et al., 2013). After mice reached end stage, the tumors were dissociated and primary cell cultures were created. These cells harbored the specific mutations of the original tumors, and could be re-injected to form gliomas in c57/B6 mice with high fidelity. Briefly, mice between the ages of 6-8 weeks received 50,000 murine glioma cells through stereotactic injection after being anesthetized with a ketamine/xylazine cocktail (87.5 mg/12.5 mg w/w). After cessation of toe-pinch reflex, the scalp was shaved and cleaned with serial use of betadine and 70% ethanol swabs. An incision was made and the skull was exposed. A burr hole was created, 2 mm anterior, 2 mm lateral and 2 mm deep to the right of the bregma. The cells were injected into the subcortical white matter over a period of 3 minutes (0.333 μL/min). Once the injection ceased, the needle was left in place for 1 minute before being slowly withdrawn. After tumor developed, brains were harvested and fixed in 4% paraformaldehyde and embedded in paraffin. 5 micron sections were made for staining.

“Also recorded” adds a separate entry of the source.

T1 sequence (Q62351 whole entry): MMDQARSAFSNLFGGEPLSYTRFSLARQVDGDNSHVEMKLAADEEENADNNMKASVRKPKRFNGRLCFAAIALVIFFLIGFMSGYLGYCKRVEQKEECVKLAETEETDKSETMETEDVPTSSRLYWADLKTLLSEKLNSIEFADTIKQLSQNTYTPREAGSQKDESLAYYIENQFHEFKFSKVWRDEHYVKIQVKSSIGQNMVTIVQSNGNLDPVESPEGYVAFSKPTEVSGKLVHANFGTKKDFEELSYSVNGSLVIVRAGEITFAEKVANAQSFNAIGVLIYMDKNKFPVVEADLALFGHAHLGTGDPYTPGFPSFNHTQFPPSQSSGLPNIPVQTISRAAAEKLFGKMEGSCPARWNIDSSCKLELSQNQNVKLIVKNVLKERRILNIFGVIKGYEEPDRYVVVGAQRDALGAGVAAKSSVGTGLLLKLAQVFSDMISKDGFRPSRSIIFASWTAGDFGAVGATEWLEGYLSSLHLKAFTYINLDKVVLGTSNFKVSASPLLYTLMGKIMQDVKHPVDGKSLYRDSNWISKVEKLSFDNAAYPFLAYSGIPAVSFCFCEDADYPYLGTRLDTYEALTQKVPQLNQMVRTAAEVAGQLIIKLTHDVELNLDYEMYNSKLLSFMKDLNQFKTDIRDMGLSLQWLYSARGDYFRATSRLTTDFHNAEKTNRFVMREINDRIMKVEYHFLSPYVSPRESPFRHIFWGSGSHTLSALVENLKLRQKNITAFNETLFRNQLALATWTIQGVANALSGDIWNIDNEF

B1: 3F3-FMA: murine monoclonal IgG1 raised against ferroptotic membrane fractions; antigen is human transferrin receptor protein 1 (TfR1) (antibody, V domains shown)
VH: EVLLQQSGTELVRPGALVKLSCKASGFNIQDLYIHWVKQRPEQGLEWIGWIDPETDNTIYDPKFQGKASITADTSSNTAYLQLSSLTSEDTAMYYCSTGLLQWYFDVWGAGTAVTVSS
VL: DIVMTQSPSSLAMSIGQKVTMRCKSSQSLLNSYNQKNCLAWYQQKPGQSPKLLLYFVSTRESGVPDRFIGSGSGTDFTLTISSVQAEDLADYFCQQHYSTPLTFGAGTKLELK
Consider B1, for which the “staining intensity in RSL3-treated cells by flow cytometry” value in assay [1] (1 μM RSL3, 4 h vs DMSO) was “increased intensities”. Besides, the “staining intensity in STS-induced apoptosis by flow cytometry” value in assay [1] (1 μM STS, 6 h vs DMSO) is recorded as “decreased intensity; also recorded: decreased intensities”. Also, in assay [2], the “staining intensity, IKE-treated vs vehicle samples” value was “did not detect its antigen; also recorded: no difference”. For the same molecule, the “recognition of TfR1 in mouse GBM tumor samples” value in assay [3] is given as “able to recognize mouse TfR1 protein”.
